Measured values as given in patent US20250320281A1.

Columns and labels:
[1] = molecular target: HIV-1 92TH021 Env on pseudotyped virus (HIV-1 isolate 92TH021); assay: cell-based or functional assay
[2] = molecular target: HIV-1 ADA Env (HIV-1 ADA); assay: cell-based or functional assay
[3] = molecular target: HIV-1 SF162 Env on pseudotyped virus (HIV-1 isolate SF162); assay: cell-based or functional assay
[4] = molecular target: HIV-1 Env of isolate 92UG114 (clade D), on pseudovirus (HIV-1); assay: cell-based or functional assay
[5] = molecular target: HIV-1 Env of isolate APV6 (HIV-1); assay: cell-based or functional assay
[6] = molecular target: HIV-1 Env of isolate CAAN.A2 (HIV-1); assay: cell-based or functional assay
[7] = molecular target: HIV-1 Env of isolate MG RM-D-005 (clade D), on pseudovirus (HIV-1); assay: cell-based or functional assay
[8] = molecular target: HIV-1 Env of isolate MG RM-D-011 (clade D), on pseudovirus (HIV-1); assay: cell-based or functional assay
[9] = molecular target: HIV-1 Env of isolate MG RM-D-012 (clade D), on pseudovirus (HIV-1); assay: cell-based or functional assay
[10] = molecular target: HIV-1 Env of isolate MG RM-D-020 (clade D), on pseudovirus (HIV-1); assay: cell-based or functional assay
[11] = molecular target: HIV-1 Env of isolate MG RM-D-026 (clade D), on pseudovirus (HIV-1); assay: cell-based or functional assay
[12] = molecular target: HIV-1 Env of isolate MG RM-D-028 (clade D), on pseudovirus (HIV-1); assay: cell-based or functional assay
[13] = molecular target: HIV-1 Env of isolate MGRM-C-024 (clade C pseudovirus) (HIV-1); assay: cell-based or functional assay
[14] = molecular target: HIV-1 Env of isolate MGRM-C-025 (clade C pseudovirus) (HIV-1); assay: cell-based or functional assay
[15] = molecular target: HIV-1 Env of isolate MGRM-C-027 (clade C pseudovirus) (HIV-1); assay: cell-based or functional assay
[16] = molecular target: HIV-1 Env of isolate MGRM-Chronic-B-017 (HIV-1); assay: cell-based or functional assay
[17] = molecular target: HIV-1 Env of isolate MGRM-Chronic-B-018 (HIV-1); assay: cell-based or functional assay
[18] = molecular target: HIV-1 Env of isolate MGRM-F1-006 (clade F), on pseudovirus (HIV-1); assay: cell-based or functional assay
[19] = molecular target: HIV-1 Env of isolate MGRM-F1-012 (clade F), on pseudovirus (HIV-1); assay: cell-based or functional assay
[20] = molecular target: HIV-1 Env of isolate MGRM-F1-018 (clade F pseudovirus) (HIV-1); assay: cell-based or functional assay
[21] = molecular target: HIV-1 Env of pseudovirus 92UG031 (subtype A) (HIV-1); assay: cell-based or functional assay
[22] = molecular target: HIV-1 Env of pseudovirus 92WR009 (subtype A) (HIV-1); assay: cell-based or functional assay
[23] = molecular target: HIV-1 Env of pseudovirus 92WR020 (subtype A) (HIV-1); assay: cell-based or functional assay
[24] = molecular target: HIV-1 Env of pseudovirus 92WR024 (subtype A) (HIV-1); assay: cell-based or functional assay
[25] = molecular target: HIV-1 Env of pseudovirus 93WR029 (subtype A) (HIV-1); assay: cell-based or functional assay
[26] = molecular target: HIV-1 Env of pseudovirus MGRM-A-003 (subtype A) (HIV-1); assay: cell-based or functional assay
[27] = molecular target: HIV-1 Env of pseudovirus MGRM-A-005 (subtype A) (HIV-1); assay: cell-based or functional assay
[28] = molecular target: HIV-1 Env of pseudovirus MGRM-A-009 (subtype A) (HIV-1); assay: cell-based or functional assay
JR-FL gp120 ΔV3 (HIV-1) = assay: ELISA, antigen-coated wells
[29] = molecular target: HIV-1 APV13 envelope glycoprotein (Env) on pseudovirus (HIV-1); assay: cell-based or functional assay
[30] = molecular target: HIV-1 MGRM-A-010 envelope glycoprotein (Env) on pseudovirus (HIV-1); assay: cell-based or functional assay
[31] = molecular target: HIV-1 MGRM-AG-005 envelope glycoprotein (Env) on pseudovirus (HIV-1); assay: cell-based or functional assay
[32] = molecular target: HIV-1 MGRM-C-027 envelope glycoprotein (Env) on pseudovirus (HIV-1); assay: cell-based or functional assay
[33] = molecular target: HIV-1 MGRM-D-001 envelope glycoprotein (Env) on pseudovirus (HIV-1); assay: cell-based or functional assay
[34] = molecular target: HIV-1 Env of isolate 92WR024 (subtype A) (HIV-1); assay: cell-based or functional assay
[35] = molecular target: HIV-1 Env of isolate 93UG077 (subtype A) (HIV-1); assay: cell-based or functional assay
[36] = molecular target: HIV-1 Env of isolate 94UG103 (subtype A) (HIV-1); assay: cell-based or functional assay
[37] = molecular target: HIV-1 envelope glycoprotein (Env) of isolate 93TH305 (HIV-1); assay: cell-based or functional assay
[38] = molecular target: HIV-1 envelope glycoprotein (Env) of isolate APV_13 (HIV-1); assay: cell-based or functional assay
[39] = molecular target: HIV-1 envelope glycoprotein (Env) of isolate APV_17 (HIV-1); assay: cell-based or functional assay
[40] = molecular target: HIV-1 envelope glycoprotein (Env) of isolate CAAN.A2 (HIV-1); assay: cell-based or functional assay

1443_C16 (PG16) (TCN-116) (antibody), sequence (VH): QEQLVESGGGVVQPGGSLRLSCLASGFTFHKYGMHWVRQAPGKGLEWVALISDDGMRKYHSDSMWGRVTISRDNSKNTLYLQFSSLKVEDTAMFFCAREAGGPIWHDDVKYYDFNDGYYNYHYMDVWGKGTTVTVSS
1443_C16 (PG16) (TCN-116) (antibody), sequence (VL): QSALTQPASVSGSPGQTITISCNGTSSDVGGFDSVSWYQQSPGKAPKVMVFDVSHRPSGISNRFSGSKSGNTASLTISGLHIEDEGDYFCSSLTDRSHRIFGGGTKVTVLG
4970_K22 (PGT-144) (antibody), sequence (VH): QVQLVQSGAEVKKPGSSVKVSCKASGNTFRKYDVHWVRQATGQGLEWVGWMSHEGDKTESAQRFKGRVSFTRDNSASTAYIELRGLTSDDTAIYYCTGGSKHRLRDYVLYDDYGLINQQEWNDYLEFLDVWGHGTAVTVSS
4970_K22 (PGT-144) (antibody), sequence (VL): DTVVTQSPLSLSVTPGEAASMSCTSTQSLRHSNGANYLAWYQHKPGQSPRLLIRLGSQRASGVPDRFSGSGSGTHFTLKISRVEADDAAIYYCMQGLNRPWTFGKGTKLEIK
4980_N08 (PGT-143) (antibody), sequence (VH): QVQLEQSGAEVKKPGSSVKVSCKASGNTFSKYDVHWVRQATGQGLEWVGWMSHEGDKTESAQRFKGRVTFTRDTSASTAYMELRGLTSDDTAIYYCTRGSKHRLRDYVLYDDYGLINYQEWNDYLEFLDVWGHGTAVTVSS
4980_N08 (PGT-143) (antibody), sequence (VL): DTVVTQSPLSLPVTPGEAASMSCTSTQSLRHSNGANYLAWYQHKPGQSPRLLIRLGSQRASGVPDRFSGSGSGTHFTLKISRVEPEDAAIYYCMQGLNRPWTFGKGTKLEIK
4993_K13 (PGT-141) (antibody), sequence (VH): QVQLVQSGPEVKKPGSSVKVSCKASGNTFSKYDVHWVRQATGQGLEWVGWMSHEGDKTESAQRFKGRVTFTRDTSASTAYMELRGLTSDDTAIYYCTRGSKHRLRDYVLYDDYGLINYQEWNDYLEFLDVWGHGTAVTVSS
4993_K13 (PGT-141) (antibody), sequence (VL): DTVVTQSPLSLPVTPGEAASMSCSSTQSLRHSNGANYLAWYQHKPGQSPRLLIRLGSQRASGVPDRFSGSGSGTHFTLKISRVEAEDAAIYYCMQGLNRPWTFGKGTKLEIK

In the case of 1443_C16 (PG16) (TCN-116) (antibody), the Neutralizing Antibody Assay: IC50; Virus/Ab Incubation 1 hour [1] is reported as 0.136 µg/mL, the Neutralizing Antibody Assay: IC50; Virus/Ab Incubation 18 hour [1] is reported as 0.0435 µg/mL and the IC50 (ug/ml), pseudovirus neutralization, TZM-bl assay [2] is reported as 0.004 µg/mL. For the same substance, the Neutralizing Antibody Assay: IC50; Virus/Ab Incubation 1 hour [3] was over 50 µg/mL and the Neutralizing Antibody Assay: IC50; Virus/Ab Incubation 18 hour [3] was over 50 µg/mL.

Substance 1495_C14 (PGC14) (antibody) has a Neutralizing Antibody Assay: IC50; Virus/Ab Incubation 1 hour [1] of over 50 µg/mL, a Neutralizing Antibody Assay: IC50; Virus/Ab Incubation 18 hour [1] of over 50 µg/mL and a Neutralizing Antibody Assay: IC50; Virus/Ab Incubation 1 hour [3] of 0.0069 µg/mL. The Neutralizing Antibody Assay: IC50; Virus/Ab Incubation 18 hour [3] was under 0.0025 µg/mL.

1496_C09 (PG9) (TCN-109) (antibody) showed a Neutralizing Antibody Assay: IC50; Virus/Ab Incubation 1 hour [1] of 0.0612 µg/mL, a Neutralizing Antibody Assay: IC50; Virus/Ab Incubation 18 hour [1] of 0.0571 µg/mL and an IC50 (ug/ml), pseudovirus neutralization, TZM-bl assay [2] of 0.2 µg/mL. For the same substance, the IC50 (µg/mL), pseudovirus neutralization [4] was 40.6 µg/mL, the IC50 (µg/mL), pseudovirus neutralization [5] was 0.181 µg/mL and the IC50 (µg/mL), pseudovirus neutralization [6] was 19.3 µg/mL. It also gave an IC50 (µg/mL), pseudovirus neutralization [7] of 1.8 µg/mL, an IC50 (µg/mL), pseudovirus neutralization [8] of 0.071 µg/mL and an IC50 (µg/mL), pseudovirus neutralization [9] of 16.2 µg/mL. For the same substance, the IC50 (µg/mL), pseudovirus neutralization [10] was 1.67 µg/mL, the IC50 (µg/mL), pseudovirus neutralization [11] was 23.7 µg/mL and the IC50 (µg/mL), pseudovirus neutralization [12] was 20.2 µg/mL. For the same substance, the IC50 (µg/mL), pseudovirus neutralization [13] was 0.227 µg/mL, the IC50 (µg/mL), pseudovirus neutralization [14] was 0.148 µg/mL and the IC50 (µg/mL), pseudovirus neutralization [15] was 5.36 µg/mL. The IC50 (µg/mL), pseudovirus neutralization [16] was 0.688 µg/mL, the IC50 (µg/mL), pseudovirus neutralization [17] was 0.216 µg/mL and the IC50 (µg/mL), pseudovirus neutralization [18] was 7.25 µg/mL. The IC50 (µg/mL), pseudovirus neutralization [19] was 0.023 µg/mL, the IC50 (µg/mL), pseudovirus neutralization [20] was 0.019 µg/mL and the IC50, pseudovirus neutralization [21] was 3.6 µg/mL. For the same substance, the IC50, pseudovirus neutralization [22] was 0.05 µg/mL, the IC50, pseudovirus neutralization [23] was 0.141 µg/mL and the IC50, pseudovirus neutralization [24] was 0.258 µg/mL. The IC50, pseudovirus neutralization [25] was 0.69 µg/mL, the IC50, pseudovirus neutralization [26] was 1.94 µg/mL and the IC50, pseudovirus neutralization [27] was 0.75 µg/mL. The IC50, pseudovirus neutralization [28] was 0.023 µg/mL.

For 4838_L06 (PGT-121) (antibody), the EC50 (JR-FL gp120 ΔV3 (HIV-1)) was over 10 µg/mL.

4858_P08 (PGT-123) (antibody) showed a neutralization IC50 [29] of 0.222 µg/mL, a neutralization IC80 [29] of 0.879 µg/mL and a neutralization IC90 [29] of 1.87 µg/mL. It also gave a neutralization IC95 [29] of 3.5 µg/mL, a neutralization IC50 [30] of 0.492 µg/mL and a neutralization IC80 [30] of 2.79 µg/mL. The neutralization IC90 [30] was 6.44 µg/mL, the neutralization IC95 [30] was over 10 µg/mL and the neutralization IC50 [31] was 0.104 µg/mL. For the same substance, the neutralization IC80 [31] was 1.28 µg/mL, the neutralization IC90 [31] was 6.38 µg/mL and the neutralization IC95 [31] was over 10 µg/mL. For the same substance, the neutralization IC50 [32] was 0.0169 µg/mL, the neutralization IC80 [32] was 0.149 µg/mL and the neutralization IC90 [32] was over 10 µg/mL. The neutralization IC95 [32] was over 10 µg/mL, the neutralization IC50 [33] was 0.215 µg/mL and the neutralization IC80 [33] was 0.678 µg/mL. The neutralization IC90 [33] was 1.31 µg/mL and the neutralization IC95 [33] was 2.33 µg/mL.

With 4970_K22 (PGT-144) (antibody) the IC50 (µg/mL), pseudovirus neutralization [34] was 16.3 µg/mL, the IC50 (µg/mL), pseudovirus neutralization [35] was over 50 µg/mL and the IC50 (µg/mL), pseudovirus neutralization [36] was over 50 µg/mL. For the same substance, the IC50 (µg/mL), pseudovirus neutralization [37] was over 50 µg/mL, the IC50 (µg/mL), pseudovirus neutralization [38] was over 50 µg/mL and the IC50 (µg/mL), pseudovirus neutralization [39] was 10.3 µg/mL. For the same substance, the IC50 (µg/mL), pseudovirus neutralization [40] was over 50 µg/mL.

Substance 4980_N08 (PGT-143) (antibody) has an IC50 (µg/mL), pseudovirus neutralization [34] of 0.122 µg/mL, an IC50 (µg/mL), pseudovirus neutralization [35] of over 50 µg/mL and an IC50 (µg/mL), pseudovirus neutralization [36] of over 50 µg/mL. The IC50 (µg/mL), pseudovirus neutralization [37] was 17.3 µg/mL, the IC50 (µg/mL), pseudovirus neutralization [38] was over 50 µg/mL and the IC50 (µg/mL), pseudovirus neutralization [39] was 1.11 µg/mL. It also gave an IC50 (µg/mL), pseudovirus neutralization [40] of over 50 µg/mL.

Work on 4993_K13 (PGT-141) (antibody) yielded an IC50 (µg/mL), pseudovirus neutralization [34] of 0.175 µg/mL, an IC50 (µg/mL), pseudovirus neutralization [35] of over 50 µg/mL and an IC50 (µg/mL), pseudovirus neutralization [36] of over 50 µg/mL. It also gave an IC50 (µg/mL), pseudovirus neutralization [37] of over 50 µg/mL, an IC50 (µg/mL), pseudovirus neutralization [38] of over 50 µg/mL and an IC50 (µg/mL), pseudovirus neutralization [39] of 0.59 µg/mL. For the same substance, the IC50 (µg/mL), pseudovirus neutralization [40] was over 50 µg/mL.
